The values below come from FireProtDB (doi:10.1016/s0014-5793(99)01395-2).

The conditions of this data set: Escherichia phage lambda, pH 7, Thermal, Fluorescence, phosphate buffer 100 mM, reversible: yes, whole UniProt chain shown.

B1: Endolysin wild type, P03706 (protein)
chain: MVEINNQRKAFLDMLAWSEGTDNGRQKTRNHGYDVIVGGELFTDYSDHPRKLVTLNPKLKSTGAGRYQLLSRWWDAYRKQLGLKDFSPKSQDAVALQQIKERGALPMIDRGDIRQAIDRCSNIWASLPGAGYGQFEHKADSLIAKFKEAGGTVREIDV
As usually defined, the Tm is the temperature at the midpoint of the melting transition. With B1, the melting temperature (Tm) came to 52.3 °C and the “unfolding enthalpy (van 't Hoff)” value turned out to be 113 kcal/mol. Moreover, the unfolding free energy (25 °C) came out at 7.1 kcal/mol.
